Like-named read-outs stand apart in the source and are kept apart here.
Assays:
Assay in all cases: EMSA
[1] = molecular target: T1, Csy complex (type I-F surveillance complex);Cas2/3 (;, UniProt Q02ML9;Q02MM0;Q02MM1;Q02MM2;Q02ML8 1-434;1-327;1-342;1-187;1-1076, |)
[2] = molecular target: T2, Csy complex (type I-F surveillance complex) (UniProt Q02ML9;Q02MM0;Q02MM1;Q02MM2 1-434;1-327;1-342;1-187)
T2 sequence 1: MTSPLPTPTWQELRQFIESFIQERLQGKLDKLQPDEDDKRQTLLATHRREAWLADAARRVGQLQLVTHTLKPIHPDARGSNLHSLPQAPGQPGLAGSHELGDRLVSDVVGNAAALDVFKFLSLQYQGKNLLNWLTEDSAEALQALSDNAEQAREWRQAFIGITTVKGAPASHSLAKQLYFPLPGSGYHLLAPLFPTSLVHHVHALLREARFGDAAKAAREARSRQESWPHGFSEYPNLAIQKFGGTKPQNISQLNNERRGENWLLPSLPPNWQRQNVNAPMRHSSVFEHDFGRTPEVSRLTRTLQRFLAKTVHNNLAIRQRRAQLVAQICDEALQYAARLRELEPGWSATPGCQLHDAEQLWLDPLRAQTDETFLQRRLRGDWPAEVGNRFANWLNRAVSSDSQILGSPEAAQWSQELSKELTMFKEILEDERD
T2 sequence 2: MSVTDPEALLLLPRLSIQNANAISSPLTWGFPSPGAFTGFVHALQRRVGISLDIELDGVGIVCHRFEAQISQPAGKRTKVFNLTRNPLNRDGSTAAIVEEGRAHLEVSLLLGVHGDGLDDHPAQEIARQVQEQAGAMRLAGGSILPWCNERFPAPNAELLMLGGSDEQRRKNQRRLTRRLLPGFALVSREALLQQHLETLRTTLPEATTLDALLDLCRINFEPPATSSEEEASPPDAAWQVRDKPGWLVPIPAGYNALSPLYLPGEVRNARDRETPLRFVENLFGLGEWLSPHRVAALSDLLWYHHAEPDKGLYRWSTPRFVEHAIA
T2 sequence 3: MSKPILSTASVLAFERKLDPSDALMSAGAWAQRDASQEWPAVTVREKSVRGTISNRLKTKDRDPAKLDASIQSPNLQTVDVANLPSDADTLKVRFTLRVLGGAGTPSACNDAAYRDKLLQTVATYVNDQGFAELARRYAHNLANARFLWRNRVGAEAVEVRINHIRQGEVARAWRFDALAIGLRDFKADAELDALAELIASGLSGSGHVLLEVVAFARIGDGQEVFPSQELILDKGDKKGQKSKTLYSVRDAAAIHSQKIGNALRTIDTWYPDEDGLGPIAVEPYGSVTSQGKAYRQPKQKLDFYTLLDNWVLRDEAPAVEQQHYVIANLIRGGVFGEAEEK
T2 sequence 4: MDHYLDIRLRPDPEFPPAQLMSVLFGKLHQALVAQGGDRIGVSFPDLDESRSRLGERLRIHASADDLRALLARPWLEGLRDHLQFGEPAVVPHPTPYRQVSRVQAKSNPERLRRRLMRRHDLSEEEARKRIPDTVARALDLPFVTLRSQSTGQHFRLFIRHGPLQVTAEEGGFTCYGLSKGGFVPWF

[3] = molecular target: Csy M (Cas8f R299G/R302A);Cas2/3 (;, UniProt Q02ML9;Q02MM0;Q02MM1;Q02MM2;Q02ML8 1-434;1-327;1-342;1-187;1-1076, R299G;R302A|)
[4] = molecular target: T1, Csy complex (type I-F surveillance …); remark: listed apart in the source

B1: 54-bp target dsDNA, 5'-FAM TS (dsDNA)
DNA 1: GGAAGCCATCCAGGTAGACGCGGACATCAAGCCCGCCGTGAAGGTGCAGCTGCT
DNA 2: AGCAGCTGCACCTTCACGGCGGGCTTGATGTCCGCGTCTACCTGGATGGCTTCC
binding result [1]: binds | Kd [2]: 9.46 ± 0.82 nM

B2: 54-bp dsDNA bubble, 5'-FAM TS (dsDNA)
DNA 1: B1 DNA 1
DNA 2: AGCAGCTGCACCAAGTGCCGCCGCTTGATGTCCGCGTCTACCTGGATGGCTTCC
binding result [3]: binds | binding result [4]: binds | Kd [2]: 8.15 ± 0.62 nM
